Measurements as given in publication PMC4614383, “Structural insights into the cooperative remodeling of membranes by amphiphysin/BIN1” (Scientific Reports, 2015).

Target: the molecule itself
Test: cryo-EM 2D class averages and power spectra; 2D classification (Relion) of segments of tubes remodeled by N-BAR, N-BAR-deltaH0 or FL; liposomes 2POPG:1POPE; periodic spacings read from the power spectra; BAR dimers to a lattice on the membrane

B1: full length Drosophila amphiphysin/BIN1 (FL, residues 1-602) (natural protein, UniProt Q7KLE5 1-602, looked up)
chain: MTENKGIMLAKSVQKHAGRAKEKILQNLGKVDRTADEIFDDHLNNFNRQQASANRLQKEFNNYIRCVRAAQAASKTLMDSVCEIYEPQWSGYDALQAQTGASESLWADFAHKLGDQVLIPLNTYTGQFPEMKKKVEKRNRKLIDYDGQRHSFQNLQANANKRKDDVKLTKGREQLEEARRTYEILNTELHDELPALYDSRILFLVTNLQTLFATEQVFHNETAKIYSELEAIVDKLATESQRGSNTLRKQTSNPIKTSSPVQSPVNKLNNANINSNYQNQITTNGGSSLANSPTSTSSSLQEPRFDSVSSTPEPRPESPAAALVSATPSSPVENGVTTKSLERPELSGLNASAKATTTTQTSPTEDKAVVSEAVKPSETEGAAVAASVTPAPPATPAQINGNNNEPSIVKEGGKQPKELPSTTSNAEAAAEAAANNGNSIEEHKQKKLGNDTTVTATETVTVTQHSVTSTDTDNIVTISDTNTDTDTKTSTGTSQKGRPVPVVNRHSVNNLNKNPFEDDDERIYEVPADANTADLPPGVLYRVKATYGYAKEDVDELSFEIGDLIRVIEYDDPEDQEEGWLMGQKEGTNEKGLFPANFTRPI
notes: amphiphysin/BIN1, Drosophila, full length, residues 1-602; Cloned either with a 3C-cleavable hexahistidine tag or a SenP2-cleavable sumo-hexahistidine tag; source: E. coli BL21 gold, purified (His-Trap, anion exchange, SEC)
Does B1 bind?
Result: binds
